Earlier results on 2 substances are cited in paper PMC6160412.

pKd: −log10 of the molar value. Read-outs that look alike come from different tables or passages of the source.

The data set has as its target Neurexin-1β (+S4) (Mus musculus) (UniProt P0DI97). The data set can be described thus: SPR. For orientation: In SPR one partner is held on a chip, and binding of the other changes the refractive index at the surface.

Neurexin-1β (+S4) (Mus musculus), sequence (P0DI97 47-392): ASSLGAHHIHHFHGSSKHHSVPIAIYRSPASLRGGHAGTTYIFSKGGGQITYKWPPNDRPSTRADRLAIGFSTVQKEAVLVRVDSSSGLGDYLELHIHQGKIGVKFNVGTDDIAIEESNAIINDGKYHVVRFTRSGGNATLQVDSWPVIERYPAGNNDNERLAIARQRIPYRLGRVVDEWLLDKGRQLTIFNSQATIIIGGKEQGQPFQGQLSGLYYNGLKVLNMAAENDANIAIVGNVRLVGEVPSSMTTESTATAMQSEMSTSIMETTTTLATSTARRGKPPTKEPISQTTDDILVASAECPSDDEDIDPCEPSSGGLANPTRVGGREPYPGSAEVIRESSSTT
Neuroligin-1, sequence (Q99K10 46-843): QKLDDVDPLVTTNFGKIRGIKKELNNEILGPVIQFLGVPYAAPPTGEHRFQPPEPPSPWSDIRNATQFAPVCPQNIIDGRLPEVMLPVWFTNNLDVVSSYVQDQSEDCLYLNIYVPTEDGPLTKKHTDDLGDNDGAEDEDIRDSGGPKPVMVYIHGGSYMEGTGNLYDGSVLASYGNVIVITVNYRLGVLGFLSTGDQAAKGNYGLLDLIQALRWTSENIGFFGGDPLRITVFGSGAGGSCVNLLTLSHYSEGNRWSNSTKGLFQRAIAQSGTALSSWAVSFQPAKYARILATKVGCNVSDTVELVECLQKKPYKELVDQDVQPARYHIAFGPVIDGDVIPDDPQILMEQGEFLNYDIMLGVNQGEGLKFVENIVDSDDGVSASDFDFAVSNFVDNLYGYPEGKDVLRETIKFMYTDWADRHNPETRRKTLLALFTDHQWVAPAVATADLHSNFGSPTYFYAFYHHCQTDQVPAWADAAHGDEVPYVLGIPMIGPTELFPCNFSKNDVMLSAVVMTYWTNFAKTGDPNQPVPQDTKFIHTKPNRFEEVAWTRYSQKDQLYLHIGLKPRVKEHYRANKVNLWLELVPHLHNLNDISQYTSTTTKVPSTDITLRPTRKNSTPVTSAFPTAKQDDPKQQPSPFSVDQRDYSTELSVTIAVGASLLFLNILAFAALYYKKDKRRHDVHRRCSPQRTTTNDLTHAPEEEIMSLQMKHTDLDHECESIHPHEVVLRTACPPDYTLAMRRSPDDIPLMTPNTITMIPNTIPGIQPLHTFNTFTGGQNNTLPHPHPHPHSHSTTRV

Usually pKd stands for −log10 of the Kd, conventionally taken in molar units. For Neuroligin-1 (from UniProt Q99K10), the negative-log Kd (pKd) was 6.15. Besides, the pKd (record 2) was 5.59.

For the substance Neuroligin-4 (from UniProt Q8N0W4), the pKd was 5.60. Also, the pKd (record 2) was 5.01.
